Laboratory results as given in paper PMC9199185, “The Importance of the C-Terminal Cys Pair of Phosphoribulokinase in Phototrophs in Thioredoxin-Dependent Regulation” (Plant and Cell Physiology, 2022).

What was measured:
purified protein [1] = substrate: Nc1ncnc2c1ncn2[C@@H]1O[C@H](COP(=O)(O)OP(=O)(O)OP(=O)(O)O)[C@@H](O)[C@H]1O; assay: purified protein; type: biochemical, Nostoc sp. PCC 7120 = FACHB-418; conditions: reduced form (pretreated with 50 mM DTTred), ATP varied 0-2 mM, 2 mM ribose 5-phosphate plus ribose 5-phosphate isomerase, 10 mM MgCl2, 100 mM KCl, pH 7.5, 30 °C
purified protein [2] = substrate: Nc1ncnc2c1ncn2[C@@H]1O[C@H](COP(=O)(O)OP(=O)(O)OP(=O)(O)O)[C@@H](O)[C@H]1O; assay: purified protein; type: biochemical, Arabidopsis thaliana; conditions: reduced form (pretreated with 50 mM DTTred), ATP varied 0-2 mM, 2 mM ribose 5-phosphate plus ribose 5-phosphate isomerase, 10 mM MgCl2, 100 mM KCl, pH 7.5, 25 °C

Protein | Km (purified protein [1]) [µM] | Vmax (purified protein [1]) [µmol/min/mg] | Km (purified protein [2]) [µM] | Vmax (purified protein [2]) [µmol/min/mg]
A.7120_PRK (Nostoc sp. PCC 7120 = FACHB-418) (protein, recombinant in E. coli BL21(DE3), pET-21a; no tag stated; Cys pairs Cys19/Cys41 and Cys230/Cys236) MTTKPERVVLIGVAGDSGCGKSTFLRRLIDLFGEEFMTVICLDDYHSLDRKQRKETGITALDPRANNFDLMYEQIKALKEGQTINKPIYNHETGLIDPPEIVKPNHIVVVEGLHPLYDERVRSLLDFSVYFDISDEVKIAWKIQRDMAERGHRYEDVLAAINSRKPDFQKYIEPQREFADVVLQVLPTNLIKDDTERKVLRVRMLQREGKEGFEPAYLFDEGSTINWTPCGRKLTCSYPGMQLYYGSDVYYGRYVSVLEVDGQFDNLEEVIYIETHLSNTSTKYQGELTQLLLQHREYPGSNNGTGFFQVLTGLKMRAAYERLTTKEAKLAVQV | 109 ± 4.5 | 214 |  | 
AtPRK (Arabidopsis thaliana) (protein, recombinant in E. coli BL21(DE3), pET-21a; no tag stated; dimer, calculated 79,000) AQETIVIGLAADSGCGKSTFMRRLTSVFGGAAKPPKGGNPDSNTLISDTTTVICLDDYHSLDRYGRKEQKVTALDPRANDFDLMYEQVKALKNGIAVEKPIYNHVTGLLDPPELIQPPKILVIEGLHPMFDERVRDLLDFSIYLDISNEVKFAWKIQRDMAERGHSLESIKASIEARKPDFDAFIDPQKQYADAVIEVLPTTLIPDDNEGKVLRVRLIMKEGVKYFSPVYLFDEGSTISWIPCGRKLTCSYPGIKFNYEPDSYFDHEVSVLEMDGQFDRLDELIYVESHLSNLSTKFYGEVTQQMLKHADFPGSNNGTGLFQTIVGLKIRDLYEQLIANKATARAEAKA |  |  | 46.5 ± 6.5 | 289
